From paper PMC9482650, “Quantitative fragmentomics allow affinity mapping of interactomes” (Nature Communications, 2022)

What follows are binders tested against T1, PCLO, Q9Y6V0 (assay: holdup assay). Conditions: plain residues with an end cap or a label only (N-terminal biotin on a linker: ttds).
T1 sequence (Q9Y6V0 4491-4600, limits assumed, looked up): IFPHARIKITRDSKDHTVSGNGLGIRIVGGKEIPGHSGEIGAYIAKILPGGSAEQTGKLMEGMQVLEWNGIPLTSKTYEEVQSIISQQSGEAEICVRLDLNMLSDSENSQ
Design: key: below the threshold = too weak to quantify, mostly under pKd 3.1 to 4
RSLEEEESQL [GRASP, Q7Z6J2] showed a pKd of 3.73. In the case of SSRTRRETQL [HPV16-E6, P03126], the pKd is reported as “below the threshold”.

Each binder was assayed against T2, MPP2, Q14168 (assay: holdup assay). Conditions: plain residues with an end cap or a label only (N-terminal biotin on a linker: ttds).
T2 sequence (Q14168 180-250, limits assumed, looked up): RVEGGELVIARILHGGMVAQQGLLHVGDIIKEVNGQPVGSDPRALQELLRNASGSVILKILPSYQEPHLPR
Design: key: below the threshold = too weak to quantify, mostly under pKd 3.1 to 4
For RSLEEEESQL [GRASP, Q7Z6J2], the pKd was “below the threshold”. SSRTRRETQL [HPV16-E6, P03126] was tested, and the pKd was “below the threshold”.

The binders below were run against MAST1, Q9Y2H9 (assay: holdup assay). Conditions: plain residues with an end cap or a label only (N-terminal biotin on a linker: ttds).
Chain of MAST1, Q9Y2H9 (Q9Y2H9 962-1065): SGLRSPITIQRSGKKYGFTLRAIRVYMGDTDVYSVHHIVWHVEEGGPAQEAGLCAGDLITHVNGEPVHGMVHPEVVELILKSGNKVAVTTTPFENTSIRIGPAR
Design: key: below the threshold = too weak to quantify, mostly under pKd 3.1 to 4
Work on RSLEEEESQL [GRASP, Q7Z6J2] yielded a pKd of 4.83. SSRTRRETQL [HPV16-E6, P03126] gave a pKd of 4.23.

The binders below were run against ARHGEF12, Q9NZN5-2 (assay: holdup assay). Conditions: plain residues with an end cap or a label only (N-terminal biotin on a linker: ttds).
Chain of ARHGEF12, Q9NZN5-2 (Q9NZN5 other isoform, or with tags, fused parts or gaps): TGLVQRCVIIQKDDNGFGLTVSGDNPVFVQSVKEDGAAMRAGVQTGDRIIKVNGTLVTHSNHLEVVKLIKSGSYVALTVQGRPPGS
Design: key: below the threshold = too weak to quantify, mostly under pKd 3.1 to 4
For RSLEEEESQL [GRASP, Q7Z6J2], the pKd was 3.56. SSRTRRETQL [HPV16-E6, P03126] gave a pKd of 4.92.

Each binder was assayed against Inadl_2, Q8NI35 (assay: holdup assay). Conditions: plain residues with an end cap or a label only (N-terminal biotin on a linker: ttds).
Chain of Inadl_2, Q8NI35 (Q8NI35 238-335): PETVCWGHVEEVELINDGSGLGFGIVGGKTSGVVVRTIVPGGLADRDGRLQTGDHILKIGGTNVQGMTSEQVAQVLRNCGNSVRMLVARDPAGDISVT
Design: key: below the threshold = too weak to quantify, mostly under pKd 3.1 to 4
With RSLEEEESQL [GRASP, Q7Z6J2] the pKd was “below the threshold”. In the case of SSRTRRETQL [HPV16-E6, P03126], the pKd is reported as “below the threshold”.

What follows are binders tested against Inadl_9, Q8NI35 (assay: holdup assay). Conditions: plain residues with an end cap or a label only (N-terminal biotin on a linker: ttds).
Chain of Inadl_9, Q8NI35 (Q8NI35 1530-1615): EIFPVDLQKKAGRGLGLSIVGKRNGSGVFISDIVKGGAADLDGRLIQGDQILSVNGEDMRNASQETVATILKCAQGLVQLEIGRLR
Design: key: below the threshold = too weak to quantify, mostly under pKd 3.1 to 4
For RSLEEEESQL [GRASP, Q7Z6J2], the pKd was “below the threshold”. For SSRTRRETQL [HPV16-E6, P03126], the pKd was “below the threshold”.

Each binder was assayed against NHERF4_2, Q86UT5 (assay: holdup assay). Conditions: plain residues with an end cap or a label only (N-terminal biotin on a linker: ttds).
Chain of NHERF4_2, Q86UT5 (Q86UT5 220-308): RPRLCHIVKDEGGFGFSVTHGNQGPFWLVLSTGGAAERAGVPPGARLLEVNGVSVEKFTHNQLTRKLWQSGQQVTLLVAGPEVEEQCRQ
Design: key: below the threshold = too weak to quantify, mostly under pKd 3.1 to 4
In the case of RSLEEEESQL [GRASP, Q7Z6J2], the pKd is reported as “below the threshold”. For SSRTRRETQL [HPV16-E6, P03126], the pKd was “below the threshold”.

These binders were tested against LNX1_2, Q8TBB1 (assay: holdup assay). Conditions: plain residues with an end cap or a label only (N-terminal biotin on a linker: ttds).
Chain of LNX1_2, Q8TBB1 (Q8TBB1 371-470): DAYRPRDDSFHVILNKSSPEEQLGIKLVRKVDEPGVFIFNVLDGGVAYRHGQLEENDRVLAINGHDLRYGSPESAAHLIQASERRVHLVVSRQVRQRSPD
Design: key: below the threshold = too weak to quantify, mostly under pKd 3.1 to 4
Binder RSLEEEESQL [GRASP, Q7Z6J2] has a pKd of 3.56. Work on SSRTRRETQL [HPV16-E6, P03126] yielded a pKd of 3.47.

What follows are binders tested against PDLIM1, O00151 (assay: holdup assay). Conditions: plain residues with an end cap or a label only (N-terminal biotin on a linker: ttds).
Chain of PDLIM1, O00151 (O00151 1-87): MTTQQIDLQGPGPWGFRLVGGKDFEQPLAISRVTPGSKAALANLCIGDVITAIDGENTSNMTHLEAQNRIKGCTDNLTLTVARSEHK
Design: key: below the threshold = too weak to quantify, mostly under pKd 3.1 to 4
Work on RSLEEEESQL [GRASP, Q7Z6J2] yielded a pKd of 3.85.

What follows are binders tested against AHNAK1, Q09666 (assay: holdup assay). Conditions: plain residues with an end cap or a label only (N-terminal biotin on a linker: ttds).
Chain of AHNAK1, Q09666 (Q09666 4-100): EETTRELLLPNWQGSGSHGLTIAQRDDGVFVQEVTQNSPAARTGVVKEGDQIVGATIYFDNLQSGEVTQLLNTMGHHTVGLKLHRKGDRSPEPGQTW
Design: key: below the threshold = too weak to quantify, mostly under pKd 3.1 to 4
RSLEEEESQL [GRASP, Q7Z6J2] showed a pKd of 3.93. For SSRTRRETQL [HPV16-E6, P03126], the pKd was “below the threshold”.

These binders were tested against T3, DVL3, Q92997 (assay: holdup assay). Conditions: plain residues with an end cap or a label only (N-terminal biotin on a linker: ttds).
T3 sequence (Q92997 244-331, limits assumed, looked up): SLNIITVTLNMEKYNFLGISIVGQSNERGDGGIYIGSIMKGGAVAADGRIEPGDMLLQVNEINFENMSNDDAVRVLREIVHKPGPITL
Design: key: below the threshold = too weak to quantify, mostly under pKd 3.1 to 4
With RSLEEEESQL [GRASP, Q7Z6J2] the pKd was 3.96. For SSRTRRETQL [HPV16-E6, P03126], the pKd was “below the threshold”.

These binders were tested against T4, HTRA4, P83105 (assay: holdup assay). Conditions: plain residues with an end cap or a label only (N-terminal biotin on a linker: ttds).
T4 sequence (P83105 378-476, limits assumed, looked up): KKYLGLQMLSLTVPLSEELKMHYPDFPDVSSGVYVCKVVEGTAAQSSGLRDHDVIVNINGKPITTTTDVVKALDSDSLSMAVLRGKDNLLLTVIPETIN
Design: key: below the threshold = too weak to quantify, mostly under pKd 3.1 to 4
In the case of RSLEEEESQL [GRASP, Q7Z6J2], the pKd is reported as “below the threshold”. For SSRTRRETQL [HPV16-E6, P03126], the pKd was “below the threshold”.

The binders below were run against T5, NHERF3_3, Q5T2W1 (assay: holdup assay). Conditions: plain residues with an end cap or a label only (N-terminal biotin on a linker: ttds).
T5 sequence (Q5T2W1 238-333, limits assumed, looked up): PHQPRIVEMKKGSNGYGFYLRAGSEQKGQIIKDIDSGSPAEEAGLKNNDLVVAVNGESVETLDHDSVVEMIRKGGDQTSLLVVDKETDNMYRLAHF
Design: key: below the threshold = too weak to quantify, mostly under pKd 3.1 to 4
For RSLEEEESQL [GRASP, Q7Z6J2], the pKd was “below the threshold”. In the case of SSRTRRETQL [HPV16-E6, P03126], the pKd is reported as 3.72.

What follows are binders tested against T6, DFNB31_1, Q9P202 (assay: holdup assay). Conditions: plain residues with an end cap or a label only (N-terminal biotin on a linker: ttds).
T6 sequence (Q9P202 135-233, limits assumed, looked up): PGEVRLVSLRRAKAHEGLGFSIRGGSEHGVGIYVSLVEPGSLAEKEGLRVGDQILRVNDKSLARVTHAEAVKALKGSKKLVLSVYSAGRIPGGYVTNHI
Design: key: below the threshold = too weak to quantify, mostly under pKd 3.1 to 4
RSLEEEESQL [GRASP, Q7Z6J2] showed a pKd of 3.86. With SSRTRRETQL [HPV16-E6, P03126] the pKd was 3.53.

The binders below were run against NHERF4_1, Q86UT5-2 (assay: holdup assay). Conditions: plain residues with an end cap or a label only (N-terminal biotin on a linker: ttds).
Chain of NHERF4_1, Q86UT5-2 (Q86UT5 other isoform, or with tags, fused parts or gaps): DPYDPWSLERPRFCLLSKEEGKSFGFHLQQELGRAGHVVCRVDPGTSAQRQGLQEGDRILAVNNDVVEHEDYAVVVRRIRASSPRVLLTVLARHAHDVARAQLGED
Design: key: below the threshold = too weak to quantify, mostly under pKd 3.1 to 4
For RSLEEEESQL [GRASP, Q7Z6J2], the pKd was 3.9. With SSRTRRETQL [HPV16-E6, P03126] the pKd was 4.25.

These binders were tested against LDB3, O75112 (assay: holdup assay). Conditions: plain residues with an end cap or a label only (N-terminal biotin on a linker: ttds).
Chain of LDB3, O75112 (O75112 1-94): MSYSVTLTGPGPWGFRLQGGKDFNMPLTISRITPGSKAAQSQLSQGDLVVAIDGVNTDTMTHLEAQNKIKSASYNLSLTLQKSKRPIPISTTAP
Design: key: below the threshold = too weak to quantify, mostly under pKd 3.1 to 4
For RSLEEEESQL [GRASP, Q7Z6J2], the pKd was 3.68. For SSRTRRETQL [HPV16-E6, P03126], the pKd was “below the threshold”.

What follows are binders tested against T7, APBA1_1, Q02410 (assay: holdup assay). Conditions: plain residues with an end cap or a label only (N-terminal biotin on a linker: ttds).
T7 sequence (Q02410 651-752, limits assumed, looked up): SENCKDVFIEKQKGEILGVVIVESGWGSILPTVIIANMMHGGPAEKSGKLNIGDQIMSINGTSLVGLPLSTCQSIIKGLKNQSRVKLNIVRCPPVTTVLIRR
Design: key: below the threshold = too weak to quantify, mostly under pKd 3.1 to 4
In the case of RSLEEEESQL [GRASP, Q7Z6J2], the pKd is reported as “below the threshold”. SSRTRRETQL [HPV16-E6, P03126] was tested, and the pKd was “below the threshold”.

What follows are binders tested against T8, TJP3_3, O95049 (assay: holdup assay). Conditions: plain residues with an end cap or a label only (N-terminal biotin on a linker: ttds).
T8 sequence (O95049 375-456, limits assumed, looked up): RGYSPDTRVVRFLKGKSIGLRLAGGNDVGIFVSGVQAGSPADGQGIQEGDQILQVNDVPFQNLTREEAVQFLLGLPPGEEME
Design: key: below the threshold = too weak to quantify, mostly under pKd 3.1 to 4
RSLEEEESQL [GRASP, Q7Z6J2] was tested, and the pKd was 3.65. SSRTRRETQL [HPV16-E6, P03126] gave a pKd of 3.68.

Each binder was assayed against DLG4_1, P78352 (assay: holdup assay). Conditions: plain residues with an end cap or a label only (N-terminal biotin on a linker: ttds).
Chain of DLG4_1, P78352 (P78352 62-152): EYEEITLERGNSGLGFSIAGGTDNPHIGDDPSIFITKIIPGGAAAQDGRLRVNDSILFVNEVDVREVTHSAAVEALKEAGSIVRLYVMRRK
Design: key: below the threshold = too weak to quantify, mostly under pKd 3.1 to 4
Binder RSLEEEESQL [GRASP, Q7Z6J2] has a pKd of 3.63. SSRTRRETQL [HPV16-E6, P03126] showed a pKd of 4.73.

The binders below were run against SCRIB_3, Q14160 (assay: holdup assay). Conditions: plain residues with an end cap or a label only (N-terminal biotin on a linker: ttds).
Chain of SCRIB_3, Q14160 (Q14160 999-1103): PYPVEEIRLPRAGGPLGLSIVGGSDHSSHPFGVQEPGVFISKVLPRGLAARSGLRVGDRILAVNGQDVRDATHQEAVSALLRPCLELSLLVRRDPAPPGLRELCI
Design: key: below the threshold = too weak to quantify, mostly under pKd 3.1 to 4
Work on RSLEEEESQL [GRASP, Q7Z6J2] yielded a pKd of 4.23. Work on SSRTRRETQL [HPV16-E6, P03126] yielded a pKd of 5.29.

Each binder was assayed against T9, FRMPD1, Q5SYB0 (assay: holdup assay). Conditions: plain residues with an end cap or a label only (N-terminal biotin on a linker: ttds).
T9 sequence (Q5SYB0 52-145, limits assumed, looked up): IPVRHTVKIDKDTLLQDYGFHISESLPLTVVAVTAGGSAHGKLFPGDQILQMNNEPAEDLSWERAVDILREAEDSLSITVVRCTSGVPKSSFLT
Design: key: below the threshold = too weak to quantify, mostly under pKd 3.1 to 4
In the case of RSLEEEESQL [GRASP, Q7Z6J2], the pKd is reported as 3.71. In the case of SSRTRRETQL [HPV16-E6, P03126], the pKd is reported as “below the threshold”.

Each binder was assayed against SCRIB_2, Q14160 (assay: holdup assay). Conditions: plain residues with an end cap or a label only (N-terminal biotin on a linker: ttds).
Chain of SCRIB_2, Q14160 (Q14160 857-960): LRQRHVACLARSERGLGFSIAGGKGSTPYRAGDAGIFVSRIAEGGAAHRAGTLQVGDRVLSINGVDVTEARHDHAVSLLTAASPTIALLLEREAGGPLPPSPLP
Design: key: below the threshold = too weak to quantify, mostly under pKd 3.1 to 4
For RSLEEEESQL [GRASP, Q7Z6J2], the pKd was 3.87. With SSRTRRETQL [HPV16-E6, P03126] the pKd was 4.21.

The binders below were run against T10, NHERF3_1, Q5T2W1 (assay: holdup assay). Conditions: plain residues with an end cap or a label only (N-terminal biotin on a linker: ttds).
T10 sequence (Q5T2W1 4-100, limits assumed, looked up): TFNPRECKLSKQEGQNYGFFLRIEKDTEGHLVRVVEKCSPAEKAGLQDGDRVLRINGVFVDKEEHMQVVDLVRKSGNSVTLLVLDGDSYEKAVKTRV
Design: key: below the threshold = too weak to quantify, mostly under pKd 3.1 to 4
Work on RSLEEEESQL [GRASP, Q7Z6J2] yielded a pKd of 5.27. Binder SSRTRRETQL [HPV16-E6, P03126] has a pKd of 5.62.

These binders were tested against T11, MPP6, Q9NZW5 (assay: holdup assay). Conditions: plain residues with an end cap or a label only (N-terminal biotin on a linker: ttds).
T11 sequence (Q9NZW5 125-219, limits assumed, looked up): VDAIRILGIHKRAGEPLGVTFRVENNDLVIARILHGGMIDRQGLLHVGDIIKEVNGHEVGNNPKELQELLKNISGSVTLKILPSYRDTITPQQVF
Design: key: below the threshold = too weak to quantify, mostly under pKd 3.1 to 4
For RSLEEEESQL [GRASP, Q7Z6J2], the pKd was 3.53. In the case of SSRTRRETQL [HPV16-E6, P03126], the pKd is reported as 3.58.

The binders below were run against MAST2, Q6P0Q8 (assay: holdup assay). Conditions: plain residues with an end cap or a label only (N-terminal biotin on a linker: ttds).
Chain of MAST2, Q6P0Q8 (Q6P0Q8 1099-1202): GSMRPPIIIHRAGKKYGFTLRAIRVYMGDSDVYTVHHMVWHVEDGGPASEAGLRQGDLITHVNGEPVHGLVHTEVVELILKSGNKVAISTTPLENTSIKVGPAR
Design: key: below the threshold = too weak to quantify, mostly under pKd 3.1 to 4
In the case of RSLEEEESQL [GRASP, Q7Z6J2], the pKd is reported as 5.6. SSRTRRETQL [HPV16-E6, P03126] gave a pKd of 5.66.

The binders below were run against T12, MPP7, Q5T2T1 (assay: holdup assay). Conditions: plain residues with an end cap or a label only (N-terminal biotin on a linker: ttds).
T12 sequence (Q5T2T1 134-230, limits assumed, looked up): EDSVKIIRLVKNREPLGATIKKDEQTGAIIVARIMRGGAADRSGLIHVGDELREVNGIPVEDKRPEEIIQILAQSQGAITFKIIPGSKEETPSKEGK
Design: key: below the threshold = too weak to quantify, mostly under pKd 3.1 to 4
RSLEEEESQL [GRASP, Q7Z6J2] was tested, and the pKd was “below the threshold”. In the case of SSRTRRETQL [HPV16-E6, P03126], the pKd is reported as “below the threshold”.
